Test results as given in patent publication US20230416366A1 (Hoffmann-La Roche, published 2023).

Target: T1, human CD28 on Jurkat reporter cells (human, UniProt P10747 19-220)
T1 construct: Endogenous CD28 of Jurkat NFAT / Jurkat IL2 reporter cells; also called hu CD28
Test: flow cytometry, MFI (PE) of PE-conjugated anti-human secondary, CHO cells stably overexpressing human CD28; monovalent one-armed IgG from supernatant
Description: Binding was assessed by flow cytometry with a FACS Fortessa (BD, Software FACS Diva). Binding curves were obtained using GraphPadPrism6.

Row | binding result | Binder
1 | binds | CD28(SA)_variant_25 (antibody, human IgG1, kappa, L234A L235A, monovalent one-armed IgG-like construct (hu IgG1 PGLALA), tested from HEK supernatant without purification; also called P1AE3081) heavy: not shown light: not shown DKTHTCPPCPAPEAAGGPSVFLFPPKPKDTLMISRTPEVTCVVVDVSHEDPEVKFNWYVDGVEVHNAKTKPREEQYNSTYRVVSVLTVLHQDWLNGKEYKCKVSNKALGAPIEKTISKAKGQPREPQVCTLPPSRDELTKNQVSLSCAVKGFYPSDIAVEWESNGQPENNYKTTPPVLDSDGSFFLVSKLTVDKSRWQQGNVFSCSVMHEALHNRFTQKSLSLSP
2 | binds | CD28(SA)_variant_26 (antibody, human IgG1, kappa, L234A L235A, monovalent one-armed IgG-like construct (hu IgG1 PGLALA), tested from HEK supernatant without purification; also called P1AE3082) heavy: not shown light: not shown DKTHTCPPCPAPEAAGGPSVFLFPPKPKDTLMISRTPEVTCVVVDVSHEDPEVKFNWYVDGVEVHNAKTKPREEQYNSTYRVVSVLTVLHQDWLNGKEYKCKVSNKALGAPIEKTISKAKGQPREPQVCTLPPSRDELTKNQVSLSCAVKGFYPSDIAVEWESNGQPENNYKTTPPVLDSDGSFFLVSKLTVDKSRWQQGNVFSCSVMHEALHNRFTQKSLSLSP
3 | binds | CD28(SA)_variant_27 (antibody, human IgG1, kappa, L234A L235A, monovalent one-armed IgG-like construct (hu IgG1 PGLALA), tested from HEK supernatant without purification; also called P1AE3083) heavy: not shown light: not shown DKTHTCPPCPAPEAAGGPSVFLFPPKPKDTLMISRTPEVTCVVVDVSHEDPEVKFNWYVDGVEVHNAKTKPREEQYNSTYRVVSVLTVLHQDWLNGKEYKCKVSNKALGAPIEKTISKAKGQPREPQVCTLPPSRDELTKNQVSLSCAVKGFYPSDIAVEWESNGQPENNYKTTPPVLDSDGSFFLVSKLTVDKSRWQQGNVFSCSVMHEALHNRFTQKSLSLSP
4 | binds | CD28(SA)_variant_29 (antibody, human IgG1, kappa, L234A L235A, monovalent one-armed IgG-like construct (hu IgG1 PGLALA), tested from HEK supernatant without purification; also called P1AE3085) heavy: not shown light: not shown DKTHTCPPCPAPEAAGGPSVFLFPPKPKDTLMISRTPEVTCVVVDVSHEDPEVKFNWYVDGVEVHNAKTKPREEQYNSTYRVVSVLTVLHQDWLNGKEYKCKVSNKALGAPIEKTISKAKGQPREPQVCTLPPSRDELTKNQVSLSCAVKGFYPSDIAVEWESNGQPENNYKTTPPVLDSDGSFFLVSKLTVDKSRWQQGNVFSCSVMHEALHNRFTQKSLSLSP
5 | binds | CD28(SA)_variant_30 (antibody, human IgG1, kappa, L234A L235A, monovalent one-armed IgG-like construct (hu IgG1 PGLALA), tested from HEK supernatant without purification; also called P1AE3086) heavy: not shown light: DIQMTQSPSSLSASVGDRVTITCRASQNIYVWLNWYQQKPGKAPKLLIYKASNLYSGVPSRFSGSRSGTDFTLTISSLQPEDFATYYCQQGQTYPYTFGQGTKLEIKRTVAAPSVFIFPPSDRKLKSGTASVVCLLNNFYPREAKVQWKVDNALQSGNSQESVTEQDSKDSTYSLSSTLTLSKADYEKHKVYACEVTHQGLSSPVTKSFNRGEC DKTHTCPPCPAPEAAGGPSVFLFPPKPKDTLMISRTPEVTCVVVDVSHEDPEVKFNWYVDGVEVHNAKTKPREEQYNSTYRVVSVLTVLHQDWLNGKEYKCKVSNKALGAPIEKTISKAKGQPREPQVCTLPPSRDELTKNQVSLSCAVKGFYPSDIAVEWESNGQPENNYKTTPPVLDSDGSFFLVSKLTVDKSRWQQGNVFSCSVMHEALHNRFTQKSLSLSP
6 | binds | CD28(SA)_variant_31 (antibody, human IgG1, kappa, L234A L235A, monovalent one-armed IgG-like construct (hu IgG1 PGLALA), tested from HEK supernatant without purification; also called P1AE3087) heavy: not shown light: not shown DKTHTCPPCPAPEAAGGPSVFLFPPKPKDTLMISRTPEVTCVVVDVSHEDPEVKFNWYVDGVEVHNAKTKPREEQYNSTYRVVSVLTVLHQDWLNGKEYKCKVSNKALGAPIEKTISKAKGQPREPQVCTLPPSRDELTKNQVSLSCAVKGFYPSDIAVEWESNGQPENNYKTTPPVLDSDGSFFLVSKLTVDKSRWQQGNVFSCSVMHEALHNRFTQKSLSLSP
